The source of these data is publication doi:10.1101/2024.12.16.628640.

The target in assay [1] is D-glucose isomerase (D-xylose isomerase, XylA) of Xanthomonas campestris, His-tagged (Xanthomonas campestris). Description: SEC. (SEC sorts molecules by how far they enter the pores of the column.)
The target in assay [2] is D-glucose isomerase (XylA) of Xanthomonas campestris with the exchange W147S, His-tagged (Xanthomonas campestris). Put plainly: SEC.

The stoichiometry N is the number of molecules, sites or subunits per partner or assembly. With “D-glucose isomerase (D-xylose isomerase, XylA) of Xanthomonas campestris, His-tagged (enzyme)”, the stoichiometry N in assay [1] was 2.
Take “D-glucose isomerase (XylA) of Xanthomonas campestris with the exchange W147S, His-tagged (enzyme)”: in assay [2], the stoichiometry N was found to be 2.
